Patent US20220324909A1 (COHBAR, published 2022)
Non-standard residues stand in square brackets, D forms with d. Primed or numbered codes have the meaning given here. No end group written: not given here. PEG12(3) = not defined here

T1: Apelin Receptor (APJ) stably overexpressed in CHO-K1 AGTRL1 Gi cells (human, UniProt P35414 1-380)
T1 sequence (looked up): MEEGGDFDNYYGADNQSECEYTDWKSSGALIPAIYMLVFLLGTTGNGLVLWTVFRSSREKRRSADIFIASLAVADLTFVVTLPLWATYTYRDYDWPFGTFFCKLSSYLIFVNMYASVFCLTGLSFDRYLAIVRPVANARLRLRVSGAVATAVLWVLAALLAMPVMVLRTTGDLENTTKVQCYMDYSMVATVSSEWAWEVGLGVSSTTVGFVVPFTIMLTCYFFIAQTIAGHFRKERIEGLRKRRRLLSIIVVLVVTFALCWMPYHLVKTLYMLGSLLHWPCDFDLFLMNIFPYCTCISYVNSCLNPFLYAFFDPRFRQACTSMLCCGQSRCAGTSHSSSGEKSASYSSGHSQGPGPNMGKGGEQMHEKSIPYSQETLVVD


What was measured:
[1] = target: T1, Apelin Receptor (APJ) stably …; assay: cell-based or functional assay
[2] = target: ProLink tagged human APJ (Apelin Receptor) in CHO-K1 AGTRL1 β-Arrestin cells (human, UniProt P35414 1-380); assay: cell-based or functional assay

cAMP levels, Percent of Pyr-Apelin-13 Control Activity (10 µM peptide, 10 µM forskolin) [1]	β-Arrestin recruitment, Percent of Apelin-13 Control Activity (10 µM peptide) [2]	Binder
15 % of Pyr-Apelin-13 control	0 % of Apelin-13 control	RMMGMVFQS [SEQ ID NO 52]
19 % of Pyr-Apelin-13 control	0 % of Apelin-13 control	RRLLGLVEQSLCG[dA] [SEQ ID NO 40]
8 % of Pyr-Apelin-13 control	0 % of Apelin-13 control	RMMGMVF [SEQ ID NO 50]
-2 % of Pyr-Apelin-13 control	0 % of Apelin-13 control	RRMMGMV [SEQ ID NO 56]
5 % of Pyr-Apelin-13 control	0 % of Apelin-13 control	RRMMGMVFQ [SEQ ID NO 58]
-7 % of Pyr-Apelin-13 control	1 % of Apelin-13 control	RRMMGM [SEQ ID NO 55]
16 % of Pyr-Apelin-13 control	0 % of Apelin-13 control	RRMMGMVFQSL [SEQ ID NO 60]
21 % of Pyr-Apelin-13 control	9 % of Apelin-13 control	Ac-RRMMGMVFQSLCG[dA]-NH2 [SEQ ID NO 63]
-13 % of Pyr-Apelin-13 control	0 % of Apelin-13 control	RRMMGMVFQSLEG[dA] [SEQ ID NO 39]
-2 % of Pyr-Apelin-13 control	0 % of Apelin-13 control	RRMMGMVFQS [SEQ ID NO 59]
5 % of Pyr-Apelin-13 control	0 % of Apelin-13 control	MMGMV [SEQ ID NO 44]
12 % of Pyr-Apelin-13 control	0 % of Apelin-13 control	RRMMGMVEQSLCG[dA] [SEQ ID NO 38]
27 % of Pyr-Apelin-13 control	2 % of Apelin-13 control	RRMMGMVFQSLCG[dA]-NH2 [SEQ ID NO 62]
6 % of Pyr-Apelin-13 control	1 % of Apelin-13 control	RMMGMVFQSL [SEQ ID NO 53]
15 % of Pyr-Apelin-13 control	0 % of Apelin-13 control	RRLLGLVFQSLEG[dA] [SEQ ID NO 41]
10 % of Pyr-Apelin-13 control	0 % of Apelin-13 control	MMGMVF [SEQ ID NO 45]
24 % of Pyr-Apelin-13 control	0 % of Apelin-13 control	RMMGMVFQ [SEQ ID NO 51]
1 % of Pyr-Apelin-13 control	5 % of Apelin-13 control	Ac-RRMMGMVFQSLCG[dA] [SEQ ID NO 61]
-1 % of Pyr-Apelin-13 control	0 % of Apelin-13 control	RRMMGMVF [SEQ ID NO 57]
20 % of Pyr-Apelin-13 control	1 % of Apelin-13 control	RMMGMVFQSLCG[dA] [SEQ ID NO 54]

Continued, binder first:

Binder	cAMP levels, Percent of Pyr-Apelin-13 Control Activity (10 µM peptide, 10 µM forskolin) [1]	β-Arrestin recruitment, Percent of Apelin-13 Control Activity (10 µM peptide) [2]
RRMMGMVYQCLEG[dA] [SEQ ID NO 29]	21 % of Pyr-Apelin-13 control	0 % of Apelin-13 control
RRMMGMVFQSLSG[dA] [SEQ ID NO 17]	26 % of Pyr-Apelin-13 control	10 % of Apelin-13 control
RRMEVYQCLEG[dA] [SEQ ID NO 32]	4 % of Pyr-Apelin-13 control	0 % of Apelin-13 control
RXMMGMVFQSLCGA ((AIB) aminoisobutyric acid at position 2; (dA) D-alanine at position 14) [SEQ ID NO 34]	61 % of Pyr-Apelin-13 control	8 % of Apelin-13 control
RRMMGMVFQCLCG[dA] (cysteine pairing not given here) [SEQ ID NO 8]	64 % of Pyr-Apelin-13 control	17 % of Apelin-13 control
RRMVFQCLCG[dA] (cysteine pairing not given here) [SEQ ID NO 19]	27 % of Pyr-Apelin-13 control	1 % of Apelin-13 control
RRMVFQCLEG[dA] [SEQ ID NO 23]	-4 % of Pyr-Apelin-13 control	0 % of Apelin-13 control
RREMVYQCLEG[dA] [SEQ ID NO 26]	29 % of Pyr-Apelin-13 control	0 % of Apelin-13 control
RRMGYQCLEG[dA] [SEQ ID NO 28]	3 % of Pyr-Apelin-13 control	-1 % of Apelin-13 control
RRMVYQCLCG[dA] (cysteine pairing not given here) [SEQ ID NO 22]	62 % of Pyr-Apelin-13 control	0 % of Apelin-13 control
RRMVYQCLEG[dA] [SEQ ID NO 24]	16 % of Pyr-Apelin-13 control	-1 % of Apelin-13 control
KRRMMGMVFQCLCGA ((PEG12) on the N-terminal K (position 1); (dA) D-alanine at position 15) [SEQ ID NO 20]	37 % of Pyr-Apelin-13 control	1 % of Apelin-13 control
RRLLGLVFQSLCG[dA] [SEQ ID NO 33]	27 % of Pyr-Apelin-13 control	9 % of Apelin-13 control
RRMMGMVFQCLCG[dA]K(PEG12(3)) (cysteine pairing not given here) [SEQ ID NO 21]	34 % of Pyr-Apelin-13 control	1 % of Apelin-13 control
RRMMGMVAQCLEG[dA] [SEQ ID NO 30]	31 % of Pyr-Apelin-13 control	-1 % of Apelin-13 control
RRMAYQCLEG[dA] [SEQ ID NO 27]	9 % of Pyr-Apelin-13 control	-1 % of Apelin-13 control
RXLLGLVFQSLCGA ((AIB) aminoisobutyric acid at position 2; (dA) D-alanine at position 14) [SEQ ID NO 35]	8 % of Pyr-Apelin-13 control	17 % of Apelin-13 control
RRMMGMVFQCLSG[dA] [SEQ ID NO 16]		0 % of Apelin-13 control
RRXXGXVFQCLCGA ((Nle) norleucine at positions 3, 4 and 6; (dA) D-alanine at position 14) [SEQ ID NO 18]	30 % of Pyr-Apelin-13 control	1 % of Apelin-13 control
RRMEVYQCLCG[dA] (cysteine pairing not given here) [SEQ ID NO 31]	2 % of Pyr-Apelin-13 control	0 % of Apelin-13 control
RREMVYQCLCG[dA] (cysteine pairing not given here) [SEQ ID NO 25]	3 % of Pyr-Apelin-13 control	-1 % of Apelin-13 control
